Reference: US20130225503A1, “TEX14 PEPTIDES AS NOVEL ANTITUMOR AGENTS” (Baylor Licnensing Group, priority 2009, published 2013)

T1: CEP55 (C1) hinge region (Mus musculus, UniProt Q8BT07)
T1 construct: an 80-amino-acid fragment of CEP55 (C1) that contains the hinge region; expressed in transfected cells; host or cells: yeast (Matchmaker Two-Hybrid System 3, Clontech)
T1 sequence (Q8BT07 157-235 limits assumed): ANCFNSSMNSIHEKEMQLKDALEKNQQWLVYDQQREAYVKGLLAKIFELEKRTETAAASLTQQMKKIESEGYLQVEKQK


Legend:
CEP55 (C1) hinge region = biological target: T1, CEP55 (C1) hinge region; assay: Yeast two-hybrid assay of truncated TEX14 with the CEP55 hinge fragment C1; assay type: binding; settings: 80-amino-acid fragment of CEP55 containing the hinge region; FIG. 3A to C
Procedure: (§1) Protein-protein interactions were evaluated by using the Matchmaker Two-Hybrid System 3 (Clontech) as described previously (10). Mouse full-length TEX14 and MLKP1 were previously subcloned into the Matchmaker GAL4 two-hybrid pGBKT7 and pGADT7 vectors (10). The constructs of full-length mouse and human CEP55, human TEX14, truncated mouse CEP55-C1, and truncated mouse TEX14-T1, T2, T1[…]T2, T3, T4, and T4-C were made by using the Matchmaker GAL4 two-hybrid pGBKT7 bait vector and pGADT7 prey vectors. Some Y2H interactions were examined with an oxygen biosensor assay (Clontech PT3584-1) that measured the fluorescence emitted by an oxygen-sensing platform that detects GAL4.
To determine the relevance of this GPPX3Y motif as it relates to the interaction of TEX14 with CEP55, we performed yeast two-hybrid assays with mouse TEX14 amino acids 756 to 815 that contain the GPPX3Y motif (FIG. 3A). These 60 amino acids interacted with full-length CEP55 (FIGS. 3B and C). Conversely, an 80-amino-acid fragment of CEP55 (C1) that contains the hinge region interacted with full-length TEX14, the C terminus (T3), and GPPX3Y-containing fragment (T4) but not a shorter sequence that lacked the GPPX3Y motif (T4-C) (FIG. 3A to C). Thus, similar GPPX3Y-containing regions of TEX14, ALIX, and TSG101 interact with the hinge region of CEP55.

[1] = biological target: the molecule itself; assay: yeast two-hybrid, full-length proteins, oxygen biosensor and selection plates
Procedure: (A) Immunoprecipitation (IP) of FLAG-TEX14 and/or MYC-CEP55 from HEK293T cells, followed by Western blot analysis with the antibodies as shown. Immunoprecipitation of protein G (lanes G) is the control. (B) Yeast two-hybrid analyses using vectors encoding full-length mouse TEX14, MKLP1, CEP55, and positive and negative controls. The relative ratios of TEX14-TEX14, TEX14-MKLP1, and TEX14-CEP55 interactions were determined by using an oxygen-biosensor system. (C) Yeast two-hybrid interactions of mouse and human full-length TEX14 and CEP55. (a) Yeast were stably transformed with vectors and plated for yeast two-hybrid analysis as depicted. SV40 T antigen with p53 and SV40 T antigen with lamin C were used as positive and negative controls, respectively. (b) Interactions between the two-hybrid proteins are evident by colony growth and blue color on selection plates.
as §1
Since both CEP55 and TEX14 interact with MKLP1 (10, 22), it was determined whether CEP55 and TEX14 are components of the intercellular bridge as direct or indirect interactors. The inventors first overexpressed full-length FLAG-TEX14 and MYC-CEP55 constructs in HEK293T cells (FIG. 2A). […] Likewise, when the inventors immunoprecipitate with anti-MYC antibody, they immunoprecipitate both MYC-CEP55 and FLAG-TEX14.

Row | yeast two-hybrid interaction with CEP55 fragment C1 (CEP55 (C1) hinge region) | Molecule | binding result [1]
1 | interacted | T4: GPPX3Y-containing fragment of mouse TEX14, amino acids 756 to 815 (EVEELEWAQKELDSQCSSLRDASLKFANAKFQPAVGPPSLAYLPPVMQLPGLKQPENGGT; UniProt Q7M6U3 756-815, looked up, fragment) | 
2 |  | full-length mouse TEX14 (other, UniProt Q7M6U3 1-1450, looked up, whole, on cells; In the yeast two-hybrid assay it stood as a fusion with a GAL4 domain (pGBKT7 bait or pGADT7 prey vector)) MSRGAPFPVPCPVLLGTFTDDSLEAQLHEYAKQGNCVKLKKILKKGVCVDAVNTQGQSALFVAALLGHVKLVDVLVDYGSDPNHRCFDGSTPVHAAAFSGNQWILSKLLTAGGDLRLHDEKGRNPQAWALTAGKDRSTQMVEFMQRCTSHMKAIIQGFSYDLLKKIDSPQRLIGSPPWFGSLIQGSPNSSPNRQLKPGIISAQNIYSFGFGKFYLTSGMQLTYPGSLPVIGEKEVVQADDEPTFSFFSGPYMVMTNLVWNRSRVTVKELNLPTRPHCSRLRLADLLIAEQEHSSNLRHPNLLQLMAVCLSRDLEKIRLVYERITVGTLFSVLHERRSQFPVLHMEVIVHLLLQVADALIYLHSRGFIHRSLSSYAVHIVSAGEARLTNLEYLTESQDSGAHRNVTRMPLPTQLYNWAAPEVVLQKAATVKSDIYSFSVIIQEILTDSIPWNGLDGSLVKETIALGNYLEADVRLPEPYYDIVKSGIHAKQKNRTMNLQDIRYILKNDLKEFIGAQKTQPTESPRGQSYEPHPDVNICLGLTSEYQKDPPDLDIKELKEMGSQPHSPTDHSFLTVKPTLAPQTLDSSLSAQKPDNANVPSPPAACLAEEVRSPTASQDSLCSFEINEIYSGCLTLGTDKEEECLGTAASPEGDRPNQGDELPSLEEELDKMERELHCFCEEDKSISEVDTDLLFEDDDWQSDSLGSLNLPEPTREAKGKTSSWSKTDEYVSKCVLNLKISQVMMQQSAEWLRKLEQEVEELEWAQKELDSQCSSLRDASLKFANAKFQPAVGPPSLAYLPPVMQLPGLKQPENGGTWLTLARSPGNEREFQEGHFSKKPEKLSACGWKPFTQVSEESRGDCSELNNQLPTLRGPGKQSTGEQLPSTQEARESLEKNTNQNSRSMASVSSEIYATKSRNNEDNGEAHLKWRLAVKEMAEKAVSGQLLLPPWNPQSSAPFESKVENESTPLPRPPIRGPESTEWQHILEYQRENDEPKGNTKFGKMDNSDCDKNKHSRWTGLQRFTGIRYPFFRNHEQPEQNEASQASCDTSVGTEKFYSTSSPIGDDFERFQDSFAQRQGYVEENFQIREIFEKNAEILTKPQFQAIQCAEDKQDETLGETPKELKEKNTSLTDIQDLSSITYDQDGYFKETSYKTPKLKHAPTSASTPLSPESISSAASHYEDCLENTTFHVKRGSTFCWNGQEAMRTLSAKFTTVRERAKSLESLLASSKSLPAKLTDSKRLCMLSETGSSNVSAAFVTSTHATKRKSLPRELAEATSQQHLDELPPPAQELLDEIEQLKQQQVSSLASHENTARDLSVTNKDKKHLEEQETNSSKDSSFLSSREIQDLEDTERAHSSLDEDLERFLQSPEENTALLDPTKGSTREKKNKDQDVVEQKRKKKESIKPERRESDSSLGTLEEDELKPCFWKRLGWSEPSRIIVLDQSDLSD | binds
